# Laboratory results taken from publication PMC5357909, “Structural and functional studies of a noncanonical Dicer from Entamoeba histolytica” (Scientific Reports, 2017).
# T1: EA256 (EhRNaseIII-AadsRBD chimera) (Entamoeba histolytica / Aquifex aeolicus, UniProt C4LU64 2-256+O67082:145-221, internal_change)
# T1 sequence: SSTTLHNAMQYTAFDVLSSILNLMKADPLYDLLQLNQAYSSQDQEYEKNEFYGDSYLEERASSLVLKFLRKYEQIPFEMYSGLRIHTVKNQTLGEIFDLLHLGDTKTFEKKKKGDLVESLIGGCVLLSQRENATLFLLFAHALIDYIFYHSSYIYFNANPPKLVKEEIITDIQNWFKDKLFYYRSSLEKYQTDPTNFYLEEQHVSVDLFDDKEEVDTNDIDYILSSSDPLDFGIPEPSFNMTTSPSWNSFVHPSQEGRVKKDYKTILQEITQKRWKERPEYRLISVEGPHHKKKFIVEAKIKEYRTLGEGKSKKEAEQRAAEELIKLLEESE
# Assays:
# [1] = biological target: T1, EA256 (EhRNaseIII-AadsRBD chimera); experiment: EMSA; 5 mM Mg2+; completely bound at 1e-4 M; EMSA (1x): 30 mM Tris-HCl pH 7.5, 30 mM NaCl, 5 mM MgCl2, 1 mM DTT, 0.1 mM EDTA, 5% glycerol; room temperature 10 min then ice 20 min; 6% native PAGE, 0.5x TBE; conditions: protein: recombinant, tags: His-Sumo removed by Ulp1, chain copies: 2, blunt
# [2] = biological target: T1, EA256 (EhRNaseIII-AadsRBD chimera); experiment: EMSA; 5 mM Mg2+; more than 70% bound at 1e-4 M; EMSA (1x): 30 mM Tris-HCl pH 7.5, 30 mM NaCl, 5 mM MgCl2, 1 mM DTT, 0.1 mM EDTA, 5% glycerol; room temperature 10 min then ice 20 min; 6% native PAGE, 0.5x TBE; conditions: protein: recombinant; tags: His-Sumo removed by Ulp1; chain copies: 2; blunt, 25 bp
binder,measurement,setting,value
RNA50 (dsRNA) RNA 1: GGGAGAAACGCGGCCUCUUCUUAUUUAUGGCGACAUGUUGUGCCUCUCCC RNA 2: GGGAGAGGCACAACAUGUCGCCAUAAAUAAGAAGAGGCCGCGUUUCUCCC,apparent K (half saturation),[1]; 50 bp,< 100 µM
RNA70 (dsRNA) RNA 1: GGGAGAAACGCGGCCUCUUCUUAUUUAUGGCGACAUGUUGUGCCACAUAUUGAGCCAGUAGCGCUCUCCC RNA 2: GGGAGAGCGCUACUGGCUCAAUAUGUGGCACAACAUGUCGCCAUAAAUAAGAAGAGGCCGCGUUUCUCCC,apparent K (half saturation),[1]; 70 bp,< 100 µM
RNA25 (dsRNA) RNA 1: GGGAGAAACGCGGCCUCUUUCUCCC RNA 2: GGGAGAAAGAGGCCGCGUUUCUCCC,apparent K (half saturation),[2],< 100 µM
RNA100 (dsRNA) RNA 1: GGGAGAAACGCGGCCUCUUCUUAUUUAUGGCGACAUGUUGUGCCACAUAUUGAGCCAGUAGCGCGGUGUAUUAUACCAGACCUUAUUGGUAUGGUCUCCC RNA 2: GGGAGACCAUACCAAUAAGGUCUGGUAUAAUACACCGCGCUACUGGCUCAAUAUGUGGCACAACAUGUCGCCAUAAAUAAGAAGAGGCCGCGUUUCUCCC,apparent K (half saturation),[1]; 100 bp,< 100 µM
